Test results as given in US20240156864A1 (UNIVERSITY OF NORTH CAROLINA AT CHAPEL HILL, published 2024).

B1: CAR19.28ζ (receptor)
chain: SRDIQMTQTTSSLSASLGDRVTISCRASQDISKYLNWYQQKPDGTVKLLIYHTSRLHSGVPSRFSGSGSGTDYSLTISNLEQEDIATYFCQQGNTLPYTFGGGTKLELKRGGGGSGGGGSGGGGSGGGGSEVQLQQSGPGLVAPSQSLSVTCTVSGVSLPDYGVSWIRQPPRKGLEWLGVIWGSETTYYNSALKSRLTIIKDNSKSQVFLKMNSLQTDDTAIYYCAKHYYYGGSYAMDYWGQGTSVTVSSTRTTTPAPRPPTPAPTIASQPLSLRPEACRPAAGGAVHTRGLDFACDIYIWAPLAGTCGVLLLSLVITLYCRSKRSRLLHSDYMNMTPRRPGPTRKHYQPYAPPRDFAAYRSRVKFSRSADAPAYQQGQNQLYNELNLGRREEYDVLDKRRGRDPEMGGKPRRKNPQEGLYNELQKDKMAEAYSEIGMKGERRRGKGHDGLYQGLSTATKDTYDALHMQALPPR
notes: Expressed in human T cells and pulled down from lysate with the anti-CAR19 Ab; also called CAR.28ζ; CAR19.CD28ζ
B2: THEMIS (other)
chain: MALSLEEFVHSLDLRTLPRVLEIQAGIYLEGSIYEMFGNECCFSTGEVIKITGLKVKKIIAEICEQIEGCESLQPFELPMNFPGLFKIVADKTPYLTMEEITRTIHIGPSRLGHPCFYHQKDIKLENLIIKQGEQIMLNSVEEIDGEIMVSCAVARNHQTHSFNLPLSQEGEFYECEDERIYTLKEIVEWKIPKNRTRTVNLTDFSNKWDSTNPFPKDFYGTLILKPVYEIQGVMKFRKDIIRILPSLDVEVKDITDSYDANWFLQLLSTEDLFEMTSKEFPIVTEVIEAPEGNHLPQSILQPGKTIVIHKKYQASRILASEIRSNFPKRHFLIPTSYKGKFKRRPREFPTAYDLEIAKSEKEPLHVVATKAFHSPHDKLSSVSVGDQFLVHQSETTEVLCEGIKKVVNVLACEKILKKSYEAALLPLYMEGGFVEVIHDKKQYPISELCKQFRLPFNVKVSVRDLSIEEDVLAATPGLQLEEDITDSYLLISDFANPTECWEIPVGRLNMTVQLVSNFSRDAEPFLVRTLVEEITEEQYYMMRRYESSASHPPPRPPKHPSVEETKLTLLTLAEERTVDLPKSPKRHHVDITKKLHPNQAGLDSKVLIGSQNDLVDEEKERSNRGATAIAETFKNEKHQK
notes: Endogenous protein from T cell lysate (Co-IP-MS); also called endogenous THEMIS; TEHMIS [sic]
B3: PIK3CD (enzyme)
chain: MPPGVDCPMEFWTKEENQSVVVDFLLPTGVYLNFPVSRNANLSTIKQLLWHRAQYEPLFHMLSGPEAYVFTCINQTAEQQELEDEQRRLCDVQPFLPVLRLVAREGDRVKKLINSQISLLIGKGLHEFDSLCDPEVNDFRAKMCQFCEEAAARRQQLGWEAWLQYSFPLQLEPSAQTWGPGTLRLPNRALLVNVKFEGSEESFTFQVSTKDVPLALMACALRKKATVFRQPLVEQPEDYTLQVNGRHEYLYGSYPLCQFQYICSCLHSGLTPHLTMVHSSSILAMRDEQSNPAPQVQKPRAKPPPIPAKKPSSVSLWSLEQPFRIELIQGSKVNADERMKLVVQAGLFHGNEMLCKTVSSSEVSVCSEPVWKQRLEFDINICDLPRMARLCFALYAVIEKAKKARSTKKKSKKADCPIAWANLMLFDYKDQLKTGERCLYMWPSVPDEKGELLNPTGTVRSNPNTDSAAALLICLPEVAPHPVYYPALEKILELGRHSECVHVTEEEQLQLREILERRGSGELYEHEKDLVWKLRHEVQEHFPEALARLLLVTKWNKHEDVAQMLYLLCSWPELPVLSALELLDFSFPDCHVGSFAIKSLRKLTDDELFQYLLQLVQVLKYESYLDCELTKFLLDRALANRKIGHFLFWHLRSEMHVPSVALRFGLILEAYCRGSTHHMKVLMKQGEALSKLKALNDFVKLSSQKTPKPQTKELMHLCMRQEAYLEALSHLQSPLDPSTLLAEVCVEQCTFMDSKMKPLWIMYSNEEAGSGGSVGIIFKNGDDLRQDMLTLQMIQLMDVLWKQEGLDLRMTPYGCLPTGDRTGLIEVVLRSDTIANIQLNKSNMAATAAFNKDALLNWLKSKNPGEALDRAIEEFTLSCAGYCVATYVLGIGDRHSDNIMIRESGQLFHIDFGHFLGNFKTKFGINRERVPFILTYDFVHVIQQGKTNNSEKFERFRGYCERAYTILRRHGLLFLHLFALMRAAGLPELSCSKDIQYLKDSLALGKTEEEALKHFRVKFNEALRESWKTKVNWLAHNVSKDNRQ
notes: Endogenous protein from T cell lysate
B4: TRAF1 (other)
chain: MASSSGSSPRPAPDENEFPFGCPPTVCQDPKEPRALCCAGCLSENPRNGEDQICPKCRGEDLQSISPGSRLRTQEKAHPEVAEAGIGCPFAGVGCSFKGSPQSVQEHEVTSQTSHLNLLLGFMKQWKARLGCGLESGPMALEQNLSDLQLQAAVEVAGDLEVDCYRAPCSESQEELALQHFMKEKLLAELEGKLRVFENIVAVLNKEVEASHLALATSIHQSQLDRERILSLEQRVVELQQTLAQKDQALGKLEQSLRLMEEASFDGTFLWKITNVTRRCHESACGRTVSLFSPAFYTAKYGYKLCLRLYLNGDGTGKRTHLSLFIVIMRGEYDALLPWPFRNKVTFMLLDQNNREHAIDAFRPDLSSASFQRPQSETNVASGCPLFFPLSKLQSPKHAYVKDDTMFLKCIVETST
notes: as for B3
B5: TRAF2 (other)
chain: AAASVTPPGSLELLQPGFSKTLLGTKLEAKYLCSACRNVLRRPFQAQCGHRYCSFCLASILSSGPQNCAACVHEGIYEEGISILESSSAFPDNAARREVESLPAVCPSDGCTWKGTLKEYESCHEGRCPLMLTECPACKGLVRLGEKERHLEHECPERSLSCRHCRAPCCGADVKAHHEVCPKFPLTCDGCGKKKIPREKFQDHVKTCGKCRVPCRFHAIGCLETVEGEKQQEHEVQWLREHLAMLLSSVLEAKPLLGDQSHAGSELLQRCESLEKKTATFENIVCVLNREVERVAMTAEACSRQHRLDQDKIEALSSKVQQLERSIGLKDLAMADLEQKVLEMEASTYDGVFIWKISDFARKRQEAVAGRIPAIFSPAFYTSRYGYKMCLRIYLNGDGTGRGTHLSLFFVVMKGPNDALLRWPFNQKVTLMLLDQNNREHVIDAFRPDVTSSSFQRPVNDMNIASGCPLFCPVSKMEAKNSYVRDDAIFIKAIVDLTGL
notes: as for B3
B6: CD8α (receptor)
chain: not shown
notes: Endogenous protein from T cell lysate; The CARs themselves carry a CD8α stalk; the text says that unique peptides outside the stalk were detected; also called CD8A; CD8 co-receptor

These binders were tested against T1, CD4 co-receptor (human, UniProt P01730 26-458) (assay: co-IP with anti-CAR19 Ab, LC-MS/MS).
T1 construct: Endogenous protein from T cell lysate
B1: no binding.

These binders were tested against T2, CAR19.BBζ (human, UniProt P01732 138-206; Q07011 214-255; P20963 52-164) (assay: co-IP with anti-CAR19 Ab from CAR-T cell lysate, LC-MS/MS).
T2 construct: Expressed in human T cells (or Jurkat cells) and pulled down from lysate; also called CAR.BBζ; CAR19.BBC
T2 sequence (P20963 other isoform, or with tags, fused parts or gaps): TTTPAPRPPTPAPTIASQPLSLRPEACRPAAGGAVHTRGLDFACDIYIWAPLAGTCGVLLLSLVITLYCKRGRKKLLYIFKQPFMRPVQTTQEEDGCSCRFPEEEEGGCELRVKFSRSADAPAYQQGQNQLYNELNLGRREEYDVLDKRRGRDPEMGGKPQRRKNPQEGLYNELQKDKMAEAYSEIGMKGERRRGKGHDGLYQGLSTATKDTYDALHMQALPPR
Protocol: (§1) For Immunoprecipitation (IP), assay, proteins from T cells were extracted in RIPA lysis buffer (Thermo Scientific) supplemented with 1×protease/phosphatase Inhibitors (Thermo Scientific). Equal amount of total proteins was used for IP. Rabbit/mouse IgG (Thermo Scientific) with protein G magnetic beads (Bio-Rad) was used to pre-clear the lysate and anti-CAR19, anti-HA or anti-FLAG Abs were incubated with lysate for 16 hours, and protein G beads were then used for the pull-down. IP products were dissolved in 2× SDS Laemmli buffer for Western blot analysis. […] 2× SDS Laemmli buffer without β-mercaptoethanol was used to dissolve the IP product, and β-mercaptoethanol was supplemented before western blot.
For mass spectrometry (MS) assays, immunoprecipitated samples (3 biological replicates) were subjected to SDS-PAGE and stained with Coomassie blue dye. Lanes for each sample were excised and the proteins were reduced, alkylated, and in-gel digested with trypsin overnight at 37° C. Peptides were extracted, desalted with C18 spin columns (Pierce) and dried via vacuum centrifugation. Peptide samples were stored at −80° C. until further analysis. The peptide samples were analyzed by liquid chromatography coupled to tandem mass spectrometry (LC-MS/MS) in 3 separated experiments using a Thermo Easy nLC 1000 coupled to a QExactive HF or a Waters nanoAcquity coupled to a Thermo LTQ-Orbitrap Velos. Samples were injected onto a PepMap C18 column (75 μm id×25 cm, 2 μm particle size) (Thermo Scientific) and separated over a 90 or 120 min gradient where mobile phase A was 0.1% formic acid in water and mobile phase B consisted of 0.1% formic acid in ACN. The LTQ-Orbitrap Velos was operated in data-dependent mode where the 10 most abundant precursors were selected for CID fragmentation (35% CE). The QExactive HF was operated in data-dependent mode where the 15 most intense precursors were selected for subsequent HCD fragmentation (27 NCE).
In the case of B2, the Area is reported as 3.78e+07, the Coverage is reported as 4% and the “Peptides (number identified)” value is reported as 2.
B3 was tested, and the Area was 5.1e+06, the Coverage was 2% and the “Peptides (number identified)” value was 2.
In the case of B4, the Area is reported as 2.31e+08, the Coverage is reported as 15% and the “Peptides (number identified)” value is reported as 4.
B5 was tested, and the Area was 5.52e+07, the Coverage was 14% and the “Peptides (number identified)” value was 6.
With B6 the Area was 7.34e+08, the Coverage was 32% and the “Peptides (number identified)” value was 6.

Each binder was assayed against B4 (assay: co-IP with anti-CAR19 Ab, LC-MS/MS; 'Values not identified are denoted by -').
Protocol: as §1
(§2) For mass spectrometry (MS) assays, immunoprecipitated samples (3 biological replicates) were subjected to SDS-PAGE and stained with Coomassie blue dye. Lanes for each sample were excised and the proteins were reduced, alkylated, and in-gel digested with trypsin overnight at 37° C. Peptides were extracted, desalted with C18 spin columns (Pierce) and dried via vacuum centrifugation. Peptide samples were stored at −80° C. until further analysis. The peptide samples were analyzed by liquid chromatography coupled to tandem mass spectrometry (LC-MS/MS) in 3 separated experiments using a Thermo Easy nLC 1000 coupled to a QExactive HF or a Waters nanoAcquity coupled to a Thermo LTQ-Orbitrap Velos. […]
B1: no binding.

Each binder was assayed against B5 in the same assay as above.
Protocol: as §1, §2
B1: no binding.
